Assay results taken from patent EP4667483A1 (JCR Pharmaceuticals Co., Ltd., dated 2024).
Read-outs that look alike come from different tables or passages of the source. Numbered stars: 1 amine (or outer) side, 2 acyl side, 3 side chain; on linkers, the order of the positions; unused ones are H or OH. Bridge positions count the residues as written; N and C are the ends. Square brackets hold non-standard residues; d marks the D form. Primed or numbered codes have the meaning given here. Ends that are not written are not given here. F4aao = 4-(carboxymethoxy)-L-phenylalanine, O=C([C@H](Cc1ccc(OCC(=O)[*:3])cc1)N[*:1])[*:2]; NMePhe(4-COOH) = CN[C@@H](Cc1ccc(C(=O)O)cc1)C(=O)O; Tyr(Me) = COc1ccc(C[C@H](N[*:1])C(=O)[*:2])cc1; NMePhe(3-Cl) = CN[C@@H](Cc1cccc(Cl)c1)C(=O)O; 3Pal(6-NH2) = Nc1ccc(C[C@H](N)C(=O)O)cn1; NMeW = CN[C@@H](Cc1c[nH]c2ccccc12)C(=O)O; Lys(N3) = [N-]=[N+]=NCCCC[C@H](N)C(=O)O; NMeY = CN[C@@H](Cc1ccc(O)cc1)C(=O)O; Nva(3-Et) = CCC(CC)[C@H](N)C(=O)O; NMeF = CN[C@@H](Cc1ccccc1)C(=O)O; F3COO(PEG4c) = not defined here; PEG4c(3) = PEG4 linker acid; PEG4c″ = not defined here

Columns and labels:
[1] = biological target: T1, human transferrin receptor (hTfR) (human, UniProt P02786 89-760); experiment: SPR, KD at pH 6.0 over KD at pH 7.4
T1 construct: Recombinant hTfR; at pH 7.4 captured on the chip by an anti-His tag antibody, at pH 6.0 immobilized on an NTA chip, so it carries a His tag; also called human TfR; TfR1
T1 sequence (P02786 89-760 limits assumed): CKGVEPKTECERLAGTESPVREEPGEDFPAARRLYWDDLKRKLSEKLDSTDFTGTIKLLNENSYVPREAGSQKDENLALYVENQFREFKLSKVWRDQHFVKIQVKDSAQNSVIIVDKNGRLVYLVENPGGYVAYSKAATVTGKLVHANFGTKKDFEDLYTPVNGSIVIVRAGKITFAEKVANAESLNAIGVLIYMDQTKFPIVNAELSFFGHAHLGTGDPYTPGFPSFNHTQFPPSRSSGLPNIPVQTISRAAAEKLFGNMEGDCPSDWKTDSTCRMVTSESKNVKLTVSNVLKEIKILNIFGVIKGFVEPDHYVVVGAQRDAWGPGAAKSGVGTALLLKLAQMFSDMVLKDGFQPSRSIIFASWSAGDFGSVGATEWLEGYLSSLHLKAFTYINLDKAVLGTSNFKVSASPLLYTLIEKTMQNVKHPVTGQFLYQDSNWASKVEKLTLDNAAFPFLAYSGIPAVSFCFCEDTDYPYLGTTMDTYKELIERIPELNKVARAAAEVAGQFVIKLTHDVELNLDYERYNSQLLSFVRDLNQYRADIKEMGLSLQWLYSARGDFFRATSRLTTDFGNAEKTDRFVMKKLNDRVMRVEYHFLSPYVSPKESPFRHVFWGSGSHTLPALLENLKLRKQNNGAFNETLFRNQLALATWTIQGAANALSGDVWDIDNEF

[2] = biological target: T1, human transferrin receptor (hTfR); experiment: SPR, koff at pH 6.0 over koff at pH 7.4
[3] = biological target: T1, human transferrin receptor (hTfR); experiment: SPR (Biacore T200), pH 6.0, hTfR on chip
[4] = biological target: T1, human transferrin receptor (hTfR); experiment: SPR (Biacore T200), pH 7.4, hTfR on chip
[5] = biological target: T1, human transferrin receptor (hTfR); experiment: SPR, KD at pH 6.0 over KD at pH 7.4; remark: listed apart in the source
[6] = biological target: T1, human transferrin receptor (hTfR); experiment: SPR, koff at pH 6.0 over koff at pH 7.4; remark: listed apart in the source
[7] = biological target: T1, human transferrin receptor (hTfR); experiment: SPR (Biacore T200), pH 6.0, hTfR on chip; remark: listed apart in the source
[8] = biological target: T1, human transferrin receptor (hTfR); experiment: SPR (Biacore T200), pH 7.4, hTfR on chip; remark: listed apart in the source
[9] = biological target: T1, human transferrin receptor (hTfR); experiment: SPR, KD at pH 6.0 over KD at pH 7.4; remark: listed apart in the source
[10] = biological target: T1, human transferrin receptor (hTfR); experiment: SPR, koff at pH 6.0 over koff at pH 7.4; remark: listed apart in the source
[11] = biological target: T1, human transferrin receptor (hTfR); experiment: SPR (Biacore T200), pH 6.0, hTfR on chip; remark: listed apart in the source
[12] = biological target: T1, human transferrin receptor (hTfR); experiment: SPR (Biacore T200), pH 7.4, hTfR on chip; remark: listed apart in the source

Binder | dependency KD pH6.0/7.4 [5] | dependency koff pH6.0/7.4 [6] | Kd [7] [nM] | Kd [8] [nM] | further results
{CH2CO}-AV[NMePhe(3-Cl)]V[NMeW]NY[F4aao]IIKRF[NMeY]C-{PEG4c(3)-NH2} (thioether N-15) [894_0644] | – | – | – | – | dependency KD pH6.0/7.4 [1]: 2.37; dependency koff pH6.0/7.4 [2]: 4.92; Kd [3]: 0.764 nM; Kd [4]: 0.322 nM
AVXVXNYXIIKRFXC (as printed: A-V-MeF3C-V-MeW-N-Y-F4OMe-I-I-K-R-F-MeY-C; linker PEG4c-NH2; cyclic (ClAc-Ala1 thioether to Cys15)) [894_0636] | – | – | – | – | dependency KD pH6.0/7.4 [1]: 3.58; dependency koff pH6.0/7.4 [2]: 5.55; Kd [3]: 0.81 nM; Kd [4]: 0.226 nM
{CH2CO}-AV[NMePhe(3-Cl)]V[NMeW]NR[Tyr(Me)]IIQRF[NMeY]C-{PEG4c(3)-NH2} (thioether N-15) [894_0642] | – | – | – | – | dependency KD pH6.0/7.4 [1]: 3.67; dependency koff pH6.0/7.4 [2]: 4.85; Kd [3]: 75.5 nM; Kd [4]: 20.6 nM
{CH2CO}-AV[NMePhe(3-Cl)]V[NMeW]NR[Tyr(Me)]IIKRF[NMeY]C-{PEG4c″-NH2} (thioether N-15; reading uncertain) [894_0641] | – | – | – | – | dependency KD pH6.0/7.4 [1]: 3.49; dependency koff pH6.0/7.4 [2]: 3.44; Kd [3]: 13.3 nM; Kd [4]: 3.81 nM
AVXVXNYXIIQRFXC (as printed: A-V-MeF3C-V-MeW-N-Y-F4OMe-I-I-Q-R-F-MeY-C; linker PEG4c-NH2; cyclic (ClAc-Ala1 thioether to Cys15)) [894_0637] | – | – | – | – | dependency KD pH6.0/7.4 [1]: 5.66; dependency koff pH6.0/7.4 [2]: 9.23; Kd [3]: 4.86 nM; Kd [4]: 0.859 nM
{CH2CO}-AV[NMeF]V[NMeW]N[3Pal(6-NH2)]YIIKRY[NMePhe(4-COOH)]C (thioether N-15; not fully specified (C-terminus)) [894_0604] | 4.76 | 7.83 | 16.7 | 3.51 | –
{CH2CO}-AV[NMeF]V[NMeW]NYY[Nva(3-Et)]IKRY[NMePhe(4-COOH)]C (thioether N-15; not fully specified (C-terminus)) [894_0593] | 2.64 | 3.72 | 9.52 | 3.61 | –
{CH2CO}-AV[NMePhe(3-Cl)]V[NMeW]NYY[Nva(3-Et)]SKRY[NMeY]C (thioether N-15; not fully specified (C-terminus)) [894_0612] | 2.33 | 6.71 | 13.2 | 5.67 | –
{CH2CO}-AV[NMeF]V[NMeW]NYY[Nva(3-Et)]SKRY[NMeY]C (thioether N-15; not fully specified (C-terminus)) [894_0611] | 2.18 | 4.83 | 66.3 | 30.4 | –
AVXVWNYYIIXRYXC (as printed: A-V-MeF-V-W-N-Y-Y-I-I-E(PEG8Me)-R-Y-MeY-C; linker G-KN3; cyclic (ClAc-Ala1 thioether to Cys15)) [894_3435] | 3.55 | 6.89 | 41.2 | 11.6 | –
AVXVWNYYIIRRXXC (as printed: A-V-MeF-V-W-N-Y-Y-I-I-R-R-F3COO(PEG8Me)-MeY-C; linker G-KN3; cyclic (ClAc-Ala1 thioether to Cys15)) [894_3436] | 3.36 | 5.75 | 6.72 | 2 | –
{CH2CO}-AV[NMeF]VWNRYIIRR[F3COO(PEG4c)][NMePhe(4-COOH)]CG[Lys(N3)]-NH2 (thioether N-15; reading uncertain) [894_3491] | – | – | – | – | dependency KD pH6.0/7.4 [9]: 3.73; dependency koff pH6.0/7.4 [10]: 2.44; Kd [11]: 799 nM; Kd [12]: 214 nM
AVXVXNYYIIKRXXC (not fully specified; as printed: A-V-MeF3C-V-W1Me-N-Y-Y-I-I-K-R-4Py-MeY-C; linker PEG4c; cyclic (ClAc-Ala1 thioether to Cys15)) [894_0607] | 3.74 | 7.49 | 2.04 | 0.546 | –
AVXVXNYYIIKRXXC (as printed: A-V-MeF-V-MeW-N-Y-Y-I-I-K-R-F3COO(PEG4c)-MeF4COO-C; linker G-KN3-NH2; cyclic (ClAc-Ala1 thioether to Cys15)) [894_3488] | – | – | – | – | dependency KD pH6.0/7.4 [9]: 3.22; dependency koff pH6.0/7.4 [10]: 5.15; Kd [11]: 5.15 nM; Kd [12]: 1.6 nM
{CH2CO}-AV[NMeF]VWN[3Pal(6-NH2)]YIIKRY[NMePhe(4-COOH)]C (thioether N-15; not fully specified (C-terminus)) [894_0603] | 4.79 | 11.3 | 35 | 7.31 | –
{CH2CO}-AV[NMePhe(3-Cl)]V[NMeW]NY[F4aao]IIKRF[NMePhe(4-COOH)](PEG4c(3))C-{PEG4c(3)-NH2} (thioether N-15) [894_0647] | – | – | – | – | dependency KD pH6.0/7.4 [1]: 5.35; dependency koff pH6.0/7.4 [2]: 9.27; Kd [3]: 0.76 nM; Kd [4]: 0.142 nM
AVXVXNYYIIKRYXC (as printed: A-V-Me3Py-V-MeW-N-Y-Y-I-I-K-R-Y-MeY-C; linker PEG4c; cyclic (ClAc-Ala1 thioether to Cys15)) [894_0615] | 0.92 | 2.87 | 15.3 | 16.6 | –
AVXVWNXYIIKRYXC (not fully specified; as printed: A-V-MeF-V-W-N-3Py6NH2-Y-I-I-K-R-Y-MeY-C; linker PEG4c; cyclic (ClAc-Ala1 thioether to Cys15)) [894_0601] | 3.28 | 8.89 | 17.4 | 5.3 | –
AVXVXNXYIIKRYXC (not fully specified; as printed: A-V-MeF-V-MeW-N-3Py6NH2-Y-I-I-K-R-Y-MeY-C; linker PEG4c; cyclic (ClAc-Ala1 thioether to Cys15)) [894_0602] | 2.97 | 6.5 | 18.9 | 6.37 | –
{CH2CO}-AV[NMePhe(3-Cl)]V[NMeW]N[3Pal(6-NH2)]YI[code s]KRY[NMeY]C (thioether N-15; also: linker PEG4c attached, place not given here, Position 10 is printed as lower-case 's') [894_0620] | 3.26 | 12.5 | 16.2 | 4.97 | –
{CH2CO}-AV[NMeF]V[NMeW]N[3Pal(6-NH2)]YI[code s]KRY[NMeY]C (thioether N-15; also: linker PEG4c attached, place not given here, Position 10 is printed as lower-case 's') [894_0619] | 4.57 | 12.2 | 126 | 27.6 | –
AVXVXNYYXIKRYXC (as printed: A-V-Me3Py-V-MeW-N-Y-Y-Eva-I-K-R-Y-MeY-C; linker PEG4c; cyclic (ClAc-Ala1 thioether to Cys15)) [894_0616] | 1.22 | 3.41 | 50.8 | 41.7 | –
AVXVXNXYIIKRYXC (as printed: A-V-MeF-V-MeW-N-3Py6NH2-Y-I-I-K-R-Y-MeF4COO-C; linker G-de-de-de-ds-ds-KN3-NH2; cyclic (ClAc-Ala1 thioether to Cys15)) [894_3498] | – | – | – | – | dependency KD pH6.0/7.4 [9]: 7.71; dependency koff pH6.0/7.4 [10]: 10.8; Kd [11]: 145 nM; Kd [12]: 18.8 nM
